According to publication PMC6426468 (Science Advances, 2019):

Experiments:
GST–lamin A = target: T1, GST–lamin A (human, UniProt P02545 1-646); test: pull-down
T1 sequence (looked up): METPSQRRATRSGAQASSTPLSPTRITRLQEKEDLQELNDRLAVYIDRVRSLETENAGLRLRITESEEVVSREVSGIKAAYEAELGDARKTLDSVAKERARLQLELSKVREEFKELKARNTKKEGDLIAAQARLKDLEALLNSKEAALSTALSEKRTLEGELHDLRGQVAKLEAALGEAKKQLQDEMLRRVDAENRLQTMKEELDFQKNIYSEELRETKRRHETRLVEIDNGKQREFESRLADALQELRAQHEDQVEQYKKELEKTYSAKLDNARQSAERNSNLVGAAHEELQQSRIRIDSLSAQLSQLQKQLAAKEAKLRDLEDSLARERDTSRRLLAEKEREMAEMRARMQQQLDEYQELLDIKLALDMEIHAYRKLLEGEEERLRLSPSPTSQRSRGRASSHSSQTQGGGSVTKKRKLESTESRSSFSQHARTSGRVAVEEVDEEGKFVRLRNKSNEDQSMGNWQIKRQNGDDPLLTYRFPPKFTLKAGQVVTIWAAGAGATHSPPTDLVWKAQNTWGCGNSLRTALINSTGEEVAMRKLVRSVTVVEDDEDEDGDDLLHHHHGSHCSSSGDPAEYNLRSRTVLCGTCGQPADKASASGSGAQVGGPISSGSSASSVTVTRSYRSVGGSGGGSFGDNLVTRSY

GST–prelamin A = target: T2, GST–prelamin A (human, UniProt P02545 1-664); test: pull-down
T2 sequence (looked up): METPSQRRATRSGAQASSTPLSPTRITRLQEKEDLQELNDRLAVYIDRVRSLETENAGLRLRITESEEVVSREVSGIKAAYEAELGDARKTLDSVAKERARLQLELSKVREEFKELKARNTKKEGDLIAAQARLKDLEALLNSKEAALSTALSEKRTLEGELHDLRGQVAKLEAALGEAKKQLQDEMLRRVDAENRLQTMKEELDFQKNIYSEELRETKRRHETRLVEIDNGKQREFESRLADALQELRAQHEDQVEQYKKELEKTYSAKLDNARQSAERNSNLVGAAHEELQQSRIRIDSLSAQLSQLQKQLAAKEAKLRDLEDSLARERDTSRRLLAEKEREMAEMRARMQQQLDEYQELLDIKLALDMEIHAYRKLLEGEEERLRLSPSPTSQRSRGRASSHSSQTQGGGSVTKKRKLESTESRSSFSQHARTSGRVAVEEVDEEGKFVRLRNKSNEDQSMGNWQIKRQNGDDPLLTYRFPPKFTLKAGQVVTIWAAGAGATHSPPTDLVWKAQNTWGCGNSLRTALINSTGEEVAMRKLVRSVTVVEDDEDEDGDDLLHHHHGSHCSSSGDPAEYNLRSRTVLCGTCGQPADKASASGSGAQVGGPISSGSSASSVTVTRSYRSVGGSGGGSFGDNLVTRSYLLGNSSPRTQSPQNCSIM

B1: CK2β (in vitro pull-down) (natural protein)
chain: not shown
B1: binds (GST–lamin A); binds (GST–prelamin A).
